Reference: the supplement of paper PMC9170038

Test system: K4 kissing-loop RNA reporter
Test: apparent KD of K4 kissing-loop reporter; higher = weaker reporter binding
Settings: Eterna round: R107
Experimental: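 RNA-MaP round R107: designed RNA switches with theophylline, tryptophan, arginine or FMN aptamers are transcribed on-chip within common flanks. They are titrated with a labelled K4 kissing-loop RNA reporter in RNA-MaP buffer (100 mM Tris pH 7.5, 80 mM KCl, 4 mM MgCl2), without ligand or with the indicated ligand. Median apparent KD per design.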

[1] = input ligand: theophylline 20 uM
[2] = input ligand: tryptophan 2.4 mM
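Note: bound reporter read as fluorescence of individual clusters on recovered sequencing chips by microscopy, with normalized cluster intensities fitted with a binding model.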

Sequence	apparent KD of K4 kissing-loop reporter (input ligand: FMN 200 uM) [nM]	apparent KD of K4 kissing-loop reporter (input ligand: arginine 13.2 mM) [nM]	apparent KD of K4 kissing-loop reporter (input ligand: none) [nM]	apparent KD of K4 kissing-loop reporter [1] [nM]	apparent KD of K4 kissing-loop reporter [2] [nM]
UAUAUACAUAGAUAGUUGUAUAUCGAGGAAGGAGCGUGCGCAGGCACAGGUAGGUCGCCUCAGCGCACGAGUGAUGUUCGUGGGC [Tezale]	247	168	267	241	246
UAUAUAGUGACGGCCGCCACUAUAUUAAUGUUUUUGUUAGAGUGAUGUUUUGUUUUAUAUUUUUAUAGGACCGGGUUAUAUGUUA [klppxmullin]	497	377	626	480	404
UAUAUAGUGACGGCCGCCACUAUUGUGAUGUAGUUGUUAGAGUGAUGUUUUGUUGUUUGAUUUUGUAGGACCGGGUUAUAUGUUA [rccrwzmullin]	842	565	812	612	668
UAUAUAGUGACGGCCGCCACUAUUGUGAUGUUGUUGUUAGAGUGAUGUUUUGUUGUUUGAUUUUGUAGGACCGGGUUAUAUGUUA [ffdfzmullin]	780	500	615	567	562
UAUGGAGUGAUGUUCCGUAUGACUGUCGAUACCAGCCUGUGCCUUGGCCCUUGGCAGCGAAAAGCAUCGGCUAAUGUCGCGUCAU [Onaraed]	201	191	194	221	184
UAUGUACACGGGUAGUGGUACAUCGAGGAAGGAGCGUGCGCAGGCACAGGUAGGUCGCCUCAGCGCACGAGUGAUGUUCGUGGGC [Inares]	327	259	306	298	265
UAUUAAUUGUCAGGAUAUCGAAAUCGAGUGAUGUUCGUAAAUUAAUUAUUAUUAAUAAUAUUUAUACGAGAAGGGACAUUAUUUA [JR_SSFMNB_Sub002]	236	671	758	780	532
UAUUGGAGUGAUGUUCCAUUAACGAUCCUACGAGGACCGGUACGGCCGCCACUCGAAAUGCAGUGAUGUUGCAGCCAGCCGUAAA [Exclusion Trptophan A GF 7]	174	167	183	188	162
UCAAGAGAACUUAAAUUUGAUCAACGCUCGCGAGGACCGGUACGGCCGCCACUCGACCGUUAGUGCCUCAUCCAGUGAUGUUGGG [theeternabot_sameState_KL_Trp_A_6]	537	394	500	508	476
UCACUUAAAAGAAAUAGAAAUUCUAGAGAUACCAGCGACACUCUUCGCCCUUGGCAGCUCAAGUGGGACCCAGUGAUGUUGGGCG [Xeceteza]	426	289	413	269	324
UCAGUUCACGGGCGCCGCAAACCGCAGGAUACCAGUCACAUCGCUGACCCUUGGCAGCCUAUGGACUAGUGAUGUUAGUCCAGGA [theeternabot_sameState_KL_Theo_A_37]	98.5	95.2	128	117	115
UCCAGCAGUACUGAUACCAGACUGCAUGUAGUGAUGUUGCAUAAGGGCAUAGAUGUCUCAGUCCCUUGGCAGCAGUACUGUUGCA [Theo B SS t1]	317	239	284	191	257
UCCAUGCGCGCACGGUACUUGCCCGCAUAUCGAGGACCGGUACGGCCGCCACUCGUGCCAGUGAUGUUGGCCGGAGAGCCUUAUG [theeternabot_sameState_KL_Trp_A_22]	476	349	475	449	524
UCCUAGGCUCGAAAGAGCCUAGGAUGGACUCAGGAUAUCCGGAAACGGAGAAGGGAGUCACUAGUGAUGUUAGGGACUCCCUAAA	87.5	79	101	70.3	87.5
UCCUGCAAUCAGCCACGAAAGUGGAUGGAUACCAGAGUCGAAAGACUCCCUUGGCAGCCAGUGAUGUUGGAAGCAGGUAAAUAAA	583	501	761	342	1290
UCGAAGGAUGGAAGGAGCGCUCGUCAGUCCUGCGAGUGAUGUUCGUGGGUAAAUAGUCGCGAGCAGGUAGGUCGCCAUCUUGAGA [Lageso]	110	96.9	101	152	118
UCGACAGUGAACGAUACCAGCGUCACGUGGCUGGUGGUCACAUGAGUGAUGUUCAUGUAACGCCCUUGGCAGCGUGCACGUAUCC [KL-XTheo-B9]	234	206	220	199	199
UCGCGUCUGCGAGGAUAUCGGAUUAGAGUGAUGUUCUAUAAACGCCCAGUGAUGUUGGAUGCGAUACGAGAAGGCGCUGGGCGCA [Same State FMN B GF8]	178	280	203	321	167
UCGGACCCUGGAGGAUAUGAGUCGAGUGAUGUUCGGCGGUCCAUGCUGGUGCGGCGUUAUGCCCUUUUAGAAGGCCAGGGUCCGA [#2 Exclusion - FMN B Attempt #12 (HarryS)]	220	147	194	174	162
UCGGACCCUGGAGGAUAUGAGUCUAGUGAUGUUAGGCGGUCCAUGCCGGUGCGGCGUUAUGCCCUUUUAGAAGGCCAGGGUCCGA [#2 Exclusion - FMN B Attempt #14 (HarryS)]	143	78.8	107	102	112
UCGGAUGUUCUGUCGAGAUGAGCAAUAGCACGAGGACCGGUACGGCCGCCACUCGACCCAGUGAUGUUGGGUGGCUAAGUUCAGC [Geragean]	265	239	208	285	147
UCUAUAGUUAGAGGAUAUUGAAUUAGAGUGAUGUUCUAUAGAAGACCAGUGAUGUUGGAUAGUAUACAAGAAGGCUGAUCUAUAG [Same State FMN B GF 1]	208	665	451	883	499

Sequence	apparent KD of K4 kissing-loop reporter (input ligand: FMN 200 uM) [nM]	apparent KD of K4 kissing-loop reporter (input ligand: arginine 13.2 mM) [nM]	apparent KD of K4 kissing-loop reporter (input ligand: none) [nM]	apparent KD of K4 kissing-loop reporter [1] [nM]	apparent KD of K4 kissing-loop reporter [2] [nM]
UCUGCUGUAUAUGAUACCAGCAGUGAGAGACAGGAAGUAUAGUGAUGUUAUAUGAGAGAAUGCCCUUGGCAGCGUGUGCGGGUGG [SSTheophylB.Y]	119	111	81.7	119	66.2
UCUGCUGUAUAUGAUACCAGCAGUGAGAGACGAGAAGUAUAGUGAUGUUAUAUGAGAGAAUGCCCUUGGCAGCGUGUGCGUGUGG [SSTheophylB.aA]	96.3	94.3	74.4	102	64.8
UCUGGAGCAUAUGAUACCAGCAGUGAGAGACAGGAAGUAUAGUGAUGUUAUAUGAGAGAAUGCCCUUGGCAGCGUGUGCAGUGGC [SSTheophylB.P]	104	96.5	65	94.9	59.7
UCUUUUGUAUAUGAUACCAGCAGUGAGAGACAGGAAGUAUAGUGAUGUUAUAUGAGAGAAUGCCCUUGGCAGCGUGUGCGGUGGG [SSTheophylB.U]	151	146	114	178	108
UCUUUUGUAUAUGAUACCAGCAGUGAGAGACAGGAAGUAUAGUGAUGUUAUAUGAGAGAAUGCCCUUGGCAGCGUGUGCGGUUGG [SSTheophylB.V]	95	174	322	268	137
UGAAAUCGAAUUCCGCGUGCAACGCCAGUAAAGGAUAUCAUCACACUGAGAAGGUUACGAAGCGGAGUGAUGUUCCGCUCUAUCC [theeternabot_sameState_KL_FMN_A_50]	105	112	120	114	98.5
UGACAUUGCUCAGAUACCAGACUUGAGGAACACCCAAGUGCCAAAACGUACUAAAUAAAAGUCCCUUGGCAGCUGAGCAAUGUCU [TheoBX 13]	91.5	30.6	46.2	60.9	59.4
UGACAUUGCUCAGAUACCAGACUUGAGGAUCACCCAGGUGCCAAACGUACAAUAAUAAAAGUCCCUUGGCAGCUGAGCAAUGUCU [TheoBX 14]	65.7	51.7	30.2	69.9	55.3
UGACAUUGCUCAGAUACCAGACUUGAGGAUCACCCAGGUGCCAAAUAAACGUACAUAAAAGUCCCUUGGCAGCUGAGCAAUGUCU [TheoBX 11]	64.8	24	55.9	85.8	76.5
UGACAUUGCUCAGAUACCAGACUUGAGGAUCACCCAGGUGCCAAAUACGUACAAAUAAAAGUCCCUUGGCAGCUGAGCAAUGUCU [TheoBX 12]	72.1	55.6	63.1	113	29.3
UGACGCCUGUCGGCCGCCACUCACAGCAGCCAGUGAUGUUGGAUUGUAGCGGAGUGAUGUUUCGCGAGGACCGGGACUGCAGUUG [Same State Tryptophan B GF 13]	259	249	260	321	250
UGACGUUUGGGAAGGAGCGGAAUGUAAUACGGAAUGCGUGGAGAUGCAGUGAUGUUGCAGAUCCAGGUAGGUCGCCCAAGGGACG [Soanina]	99.5	84.9	91.2	79.3	87.8
UGACUACAGGAAUAAUAAUCUUAGUGAUGUUAGGAUAUGCUGAUAAGCAGAAGGAACUGAGAUCGAAAGAUCUCAAAAGUAGUCU [#05 K4 FMN A Exclusion]	445	167	202	236	199
UGACUGGACUGAAGGAGCGAGCGAGACAAAGUCUCGAAUUUUCAGUGAUGUUGAUAUAUAACUCAGGUAGGUCGCAGUCUAGUCU [ArgBS 8 #SwitchBubble #StaticStem]	395	423	543	438	441
UGACUGGACUGAAGGAGCGCCACGGUCAUAGACCGAAUAAGGAGUGAUGUUCCACAUAAAAGGCAGGUAGGUCGCAGUCUAGUCU [ArgBS 2 #SwitchBubble #StaticStem]	121	113	107	98.1	101
UGACUGGACUGAAGGAGCGCGAAACUCCUAGUGAUGUUAGGAAAACGAGACAAAGUCUCGACGCAGGUAGGUCGCAGUCUAGUCU	125	102	103	115	135
UGACUGGACUGAAGGAGCGCUGAACUCCUAGUGAUGUUAGGAUAACGAGACAAAGUCUCGAAGCAGGUAGGUCGCAGUCUAGUCU	118	95.3	112	123	108
UGACUGGACUGAAGGAGCGCUGAACUCCUAGUGAUGUUAGGAUAACGAGACAAAGUCUCGCGGCAGGUAGGUCGCAGUCUAGUCU	122	93.3	109	99.3	106
UGACUGGACUGAAGGAGCGCUUAACUCCUAGUGAUGUUAGGGAAACGAGACAAAGUCUCGAAGCAGGUAGGUCGCAGUCUAGUCU	216	164	217	211	194
UGACUGGACUGAAGGAGCGUUCAGGUAGGUCGCUAUGGAGUGAUGUUCCAUAGAAGGAGCGAACAGGUAGGUCGCAGUCUAGUCU [ArgBS 30 #DoubleAptamer #SwitchBubble]	181	100	111	167	120
UGACUGGACUGAAGGAGCGUUGAAGGAGCGUAAGCAGUGAUGUUGCUUACAGGUAGGUCGCAGCAGGUAGGUCGCAGUCUAGUCU [ArgBS 28 #DoubleAptamer #SwitchBubble]	134	102	122	115	122
UGAUAAAGCAGUGAUGUUGCAAGAAAUGAUACCAGUUAAGAAAAGAACCCUUGGCAGCAUAAAGUGCGCUCUAAUGAGUGUGCUU [theophylline a same state]	141	183	156	231	126
